Data reported in paper PMC11661448.

B1: TTC7B-FAM126A (1 to 308) mutant TTC7B:A702R [human] / EFR3A (721 to 791) [human] (parent)
chain 1: MATKKAGSRLETEIERCRSECQWERIPELVKQLSAKLIANDDMAELLLGESKLEQYLKEHPLRQGASPRGPKPQLTEVRKHLTAALDRGNLKSEFLQESNLIMAKLNYVEGDYKEALNIYARVGLDDLPLTAVPPYRLRVIAEAYATKGLCLEKLPISSSTSNLHVDREQDVITCYEKAGDIALLYLQEIERVILSNIQNRSPKPGPAPHDQELGFFLETGLQRAHVLYFKNGNLTRGVGRFRELLRAVETRTTQNLRMTIARQLAEILLRGMCEQSYWNPLEDPPCQSPLDDPLRKGANTKTYTLTRRARVYSGENIFCPQENTEEALLLLLISESMANRDAVLSRIPEHKSDRLISLQSASVVYDLLTIALGRRGQYEMLSECLERAMKFAFEEFHLWYQFALSLMAAGKSARAVKVLKECIRLKPDDATIPLLAAKLCMGSLHWLEEAEKFAKTVVDVGEKTSEFKAKGYLALGLTYSLQATDASLRGMQEVLQRKALLAFQRAHSLSPTDHQAAFYLALQLAISRQIPEALGYVRQALQLQGDDANSLHLLALLLSAQKHYHDALNIIDMALSEYPENFILLFSKVKLQSLCRGPDEALLTCKHMLQIWKSCYNLTNPSDSGRGSSLLDRTIADRRQLNTITLPDFSDPETGSVHATSVAASRVEQALSEVASSLQSSAPKQGPLHPWMTLAQIWLHAAEVYIGIGKPAEATACTQEAANLFPMSHNVLYMRGQIAELRGSMDEARRWYEEALAISPTHVKSMQRLALILHQLGRYSLAEKILRDAVQVNSTAHEVWNGLGEVLQAQGNDAAATECFLTALELEASSPAVPFTIIPRVL
chain 2: MFTSEKGVVEEWLSEFKTLPETSLPNYATNLKDKSSLVSSLYKVIQEPQSELLEPVCHQLFEFYRSGEEQLLQFTLQFLPELIWCYLAVSASRNVHSSGCIEALLLGVYNLEIVDKQGHTKVLSFTIPSLSKPSVYHEPSSIGSMALTESALSQHGLSKVVYSGPHPQREMLTAQNRFEVLTFLLLCYNAALTYMPSVSLQSLCQICSRICVCGYPRQHVRKYKGISSRIPVSSGFMVQMLTGIYFAFYNGEWDLAQKALDDIIYRAQLELYPEPLLVANAIKASLPHGPMKSNKEGTRCIQVEITPT
chain 3: SNTEEITFEALKKAIDTSGMEEQEKEKRRLVIEKFQKAPFEEIAAQCESKANLLHDRLAQILELTIRPPPS

Variants of: B1
Assay: BLI
Conditions: with EFR3A (721 to 791) [human]; His-EFR3A loaded on the anti-penta-His tip at 200 nM, TTC7B-FAM126A at 500 nM; 25°C; 20 mM HEPES (pH 7.5), 150 mM NaCl; read off a plot

| Variant | response |
| --- | --- |
| chain 1 A702R | -0.07 nm |
| chain 1 L610A | 0.85 nm |
| chain 1 R539E | 1.2 nm |
| chain 1 W699A | 1.4 nm |
| chain 2 A103R | 0.08 nm |
| chain 2 F61A | 0.37 nm |
| chain 2 H58E | 1.6 nm |
| chain 2 L106F | 1.1 nm |

Same assay, conditions: with TTC7B-FAM126A (1 to 308) [human]; His-EFR3A loaded on the anti-penta-His tip at 200 nM, TTC7B-FAM126A at 500 nM; 25°C; 20 mM HEPES (pH 7.5), 150 mM NaCl; read off a plot

| Variant | response |
| --- | --- |
| chain 3 A14R | 0.23 nm |
| chain 3 F8A | 0.47 nm |
| chain 3 F35A | -0.02 nm |
| chain 3 F40A | 0.84 nm |
| chain 3 I43A | 0.45 nm |
| chain 3 I61A | 1.5 nm |
| chain 3 K12E | 0.27 nm |
| chain 3 K50E | 0.82 nm |
| chain 3 L11A | 0.01 nm |
| chain 3 L11R | 0.17 nm |
| chain 3 R57E | 1.3 nm |
